Target: 重组蛋白hVEGF-Fc (human)
Assay: cell-based or functional assay

Chain of 重组蛋白hVEGF-Fc (human) (chain, as listed by the source limits assumed): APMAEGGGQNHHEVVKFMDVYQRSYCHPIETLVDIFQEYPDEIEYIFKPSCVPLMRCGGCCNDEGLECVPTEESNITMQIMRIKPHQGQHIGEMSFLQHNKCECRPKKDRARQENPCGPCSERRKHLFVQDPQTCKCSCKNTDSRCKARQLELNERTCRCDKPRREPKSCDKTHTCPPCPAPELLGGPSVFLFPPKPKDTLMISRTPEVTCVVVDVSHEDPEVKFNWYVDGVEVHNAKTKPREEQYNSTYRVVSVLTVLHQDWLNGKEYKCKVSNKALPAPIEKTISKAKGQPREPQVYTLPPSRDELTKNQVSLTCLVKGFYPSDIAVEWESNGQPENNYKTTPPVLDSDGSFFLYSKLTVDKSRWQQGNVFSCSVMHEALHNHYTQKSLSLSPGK

中和VEGF活性IC 50: 0.582 nM
Substance: Faricimab (bispecific antibody)

Reference: patent CN116265487A
